{
  "source": "paper PMC3583217",
  "about": "“Novel HER2 Aptamer Selectively Delivers Cytotoxic Drug to HER2-positive Breast Cancer Cells in Vitro”",
  "molecular_target": "HER2 extracellular domain (ECD) (UniProt P04626 23-652)",
  "test": "flow cytometry on protein-coated beads; random-library background subtracted; Hanks buffer (SELEX binding buffer with 0.1 mg/mL salmon sperm DNA and 1 mg/mL BSA), 37 C, 30 min; pH not stated; aptamer pool heated 95 C 5 min then iced in SELEX",
  "conditions": "protein: commercial; tags: covalently coupled to magnetic beads; label: FITC (5' via primer P1 in SELEX)",
  "data": [
    {"binder": "HB5 (ssDNA) DNA: AACCGCCCAAATCCCTAAGAGTCTGCACTTGTCATTTTGTATATGTATTTGGTTTTTGGCTCTCACAGACACACTACACACGCACA", "values": [
      {"measurement": "Kd", "result": 316, "unit": "nM"}
    ]}
  ]
}
